The supplement of paper PMC7877785
± gives the uncertainty stated by the source.

Assay: self-splicing fitness, log relative to wild type (ln ratio); higher = more splicing; Tetrahymena group I intron in knt gene, E. coli kanamycin selection, DiMSum; sequences stand for … in CUCUCU…GGAGGGAAAAGUUAUCAGGCAUGCACCUGGUAGCUAGUCUUUAAACCAAUAGAUUGCAUCGGUUUAAAAGGCAAGACCGUCAAAUUGCGGGAAAGGGGUCAACAGCCGUUCAGUACCAAGUCUCAGGGGAAACUUUGAGAUGGCCUUGCAAAGGGUAUGGUAAUAAGCUGACGGACAUGGUCCUAACCACGCAGCCAAGUCCUAAGUCAACAGAUCUUCUGUUGAUAUGGAUGCAGUUCACAGACUAAAUGUCGGUCGGGGAAGAUGUAUUCUUCUCAUAAGAUAUAGUCGGACCUCUCCUUAAUGGGAGCUAGCGGAUGAAGUGAUGCAACACUGGAGCCGCUGGGAACUAAUUUGUAUGCGAAAGUAUAUUGAUUAGUUUUGGAGUACUCGUGGUCG
How it was run: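 Six replicate transformations of E. coli BL21(DE3) with a pET-22b(+) library were grown overnight at 37°C or 30°C. The library randomised all eight P1ex-region intron nucleotides, the intron lying in the knt kanamycin-resistance gene, and plates were LB agar with or without 25 μg/mL kanamycin plus 100 μg/mL carbenicillin, 50 μM IPTG and 0.2% rhamnose. Pooled colonies were amplicon-sequenced on an Illumina HiSeq 2500, and fitness is the DiMSum error-weighted combination of wild-type-normalised replicate fold changes, kanamycin versus none.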

Sequence	self-splicing fitness (ln) (30 °C)	self-splicing fitness (ln) (37 °C)
UAAGAGCAAUAUUACGGGCA	-2.73 ± 0.26	-1.99 ± 0.24
UAACAGCAAUAUUACGACUG	-0.343 ± 0.077	0.429 ± 0.099
UACAAGCAAUAUUACGGCAC	-1.64 ± 0.14	-0.345 ± 0.2
AGGGAGCAAUAUUACGAUUC	-3.76 ± 0.35	-2.41 ± 0.29
CCAGAGCAAUAUUACGUUUU	-3.06 ± 0.18	-2.62 ± 0.21
CUUGAGCAAUAUUACGCUUU	-2.88 ± 0.32	-3.35 ± 0.31
AAACAGCAAUAUUACGCGGC	-3.54 ± 0.12	-2.7 ± 0.12
UCAUAGCAAUAUUACGGUGG	-3.13 ± 0.15	-2.07 ± 0.17
GGGGAGCAAUAUUACGAUUG	-2.02 ± 0.45	-1.67 ± 0.45
ACGCAGCAAUAUUACGUGAG	-1.19 ± 0.056	-0.552 ± 0.07
CCUGAGCAAUAUUACGGGUG	-2.65 ± 0.12	-1.81 ± 0.14
AAAAAGCAAUAUUACGAUUG	-1.86 ± 0.093	-1.67 ± 0.13
AUUAAGCAAUAUUACGUAGU	-1.53 ± 0.071	-0.166 ± 0.085
GAUCAGCAAUAUUACGUGGC	-2.95 ± 0.21	-0.582 ± 0.15
AUCCAGCAAUAUUACGGGGU	-4.35 ± 0.18	-2.19 ± 0.13
UACAAGCAAUAUUACGUGAU	-3.16 ± 0.14	-1.34 ± 0.14
CCAGAGCAAUAUUACGUUAC	-3.64 ± 0.46	-1.7 ± 0.34
UCAGAGCAAUAUUACGUUAG	-3.86 ± 0.42	-3.25 ± 0.35
CACCAGCAAUAUUACGGUAC	-3.11 ± 0.11	-2.13 ± 0.1
AAGUAGCAAUAUUACGCACC	-1.16 ± 0.12	-0.367 ± 0.2
UGGUAGCAAUAUUACGGGGC		-2.37 ± 0.38
GCUAAGCAAUAUUACGGAGU	-4.27 ± 0.27	-3.14 ± 0.26
AUCGAGCAAUAUUACGCGCG	-2.29 ± 0.15	-0.653 ± 0.16
AACCAGCAAUAUUACGCGCG	-0.385 ± 0.082	0.256 ± 0.11
UCAGAGCAAUAUUACGUCUC	-2.81 ± 0.34	

Sequence	self-splicing fitness (ln) (30 °C)	self-splicing fitness (ln) (37 °C)
ACAUAGCAAUAUUACGGCGG	-1.04 ± 0.049	-0.52 ± 0.072
AAAAAGCAAUAUUACGGCUG	-0.648 ± 0.085	-0.345 ± 0.13
UAAGAGCAAUAUUACGAAAA		-2.26 ± 0.38
AUGCAGCAAUAUUACGUACU	0.346 ± 0.055	0.441 ± 0.07
GCAUAGCAAUAUUACGAUUC	-0.8 ± 0.083	-0.436 ± 0.097
UAUCAGCAAUAUUACGAAGU	-2.82 ± 0.28	-0.868 ± 0.29
UUCGAGCAAUAUUACGCUUU	-3.89 ± 0.26	-2.56 ± 0.21
CGUCAGCAAUAUUACGUGUC	-3.72 ± 0.17	-2.96 ± 0.19
UUCUAGCAAUAUUACGCACG	-1.26 ± 0.26	-0.399 ± 0.3
AGUAAGCAAUAUUACGAGGU	-2.56 ± 0.18	-2.89 ± 0.22
AUACAGCAAUAUUACGACAG	-2.15 ± 0.14	-2.03 ± 0.15
ACUAAGCAAUAUUACGCUUA	-2.54 ± 0.25	-2.83 ± 0.32
AACGAGCAAUAUUACGCUUU	-3.9 ± 0.17	-2.31 ± 0.14
GGCAAGCAAUAUUACGCGGU	-2.97 ± 0.14	-1.37 ± 0.12
AAGCAGCAAUAUUACGCACU	0.0285 ± 0.094	0.781 ± 0.12
AAAAAGCAAUAUUACGUGUU	-2.04 ± 0.055	-1.22 ± 0.068
AAUCAGCAAUAUUACGGUAG	-1.83 ± 0.092	-0.774 ± 0.097
UCCUAGCAAUAUUACGAAGG	-2.91 ± 0.15	-2.1 ± 0.19
CCACAGCAAUAUUACGACGA	-3.12 ± 0.19	-2.09 ± 0.16
CCGGAGCAAUAUUACGUACC		-0.504 ± 0.41
ACUAAGCAAUAUUACGUGGG	-2.98 ± 0.14	-2.81 ± 0.14
CACGAGCAAUAUUACGCCGA	-2.35 ± 0.39	
GCAUAGCAAUAUUACGUCGA	-1.63 ± 0.15	-0.979 ± 0.15
UAUCAGCAAUAUUACGGUAU	-3.73 ± 0.21	-2.01 ± 0.18
GAGAAGCAAUAUUACGCGUG	-0.423 ± 0.062	-0.803 ± 0.09

Sequence	self-splicing fitness (ln) (30 °C)	self-splicing fitness (ln) (37 °C)
UUCUAGCAAUAUUACGGGGG	-3.75 ± 0.37	-2.09 ± 0.22
GCGCAGCAAUAUUACGACCC	0.715 ± 0.26	0.34 ± 0.27
ACCAAGCAAUAUUACGAACU	-0.54 ± 0.061	-0.819 ± 0.08
GAUUAGCAAUAUUACGAGAU	-3.12 ± 0.14	-3.26 ± 0.19
GAAAAGCAAUAUUACGCUCU	-2.07 ± 0.13	-1.27 ± 0.13
ACGCAGCAAUAUUACGUGAU	-1.78 ± 0.039	-0.783 ± 0.055
ACAUAGCAAUAUUACGCUGG	-2.36 ± 0.11	-1.46 ± 0.12
AUACAGCAAUAUUACGGUAA	-0.731 ± 0.094	-0.502 ± 0.093
UAGAAGCAAUAUUACGCGCC	-3.18 ± 0.24	-0.65 ± 0.13
CCUGAGCAAUAUUACGAGUG	-1.44 ± 0.097	-0.572 ± 0.12
AUACAGCAAUAUUACGGAGG	-3.46 ± 0.21	-1.8 ± 0.19
UAAAAGCAAUAUUACGAGAG	-3.35 ± 0.19	-1.6 ± 0.13
UACAAGCAAUAUUACGCUAA	-1.95 ± 0.11	-1.35 ± 0.11
UGACAGCAAUAUUACGAGGA	-2.51 ± 0.16	-3.06 ± 0.22
CGCUAGCAAUAUUACGAUGU	-2.56 ± 0.11	-1 ± 0.11
CGGAAGCAAUAUUACGUGGC	-3.67 ± 0.18	-2.54 ± 0.23
CUUGAGCAAUAUUACGCUAC	-2.82 ± 0.49	-2.02 ± 0.45
UCAGAGCAAUAUUACGGAUC		-2.15 ± 0.33
UGGUAGCAAUAUUACGAAGG	-2.95 ± 0.28	-1.39 ± 0.24
AUUGAGCAAUAUUACGGCGC	-0.865 ± 0.23	-0.384 ± 0.17
AGACAGCAAUAUUACGUUGG	-1.95 ± 0.094	-1.99 ± 0.14
CAAUAGCAAUAUUACGUACU	-3.33 ± 0.13	-1.8 ± 0.13
UUUCAGCAAUAUUACGAGAG	-1.8 ± 0.069	-1.91 ± 0.088
CGUUAGCAAUAUUACGGGCU	-1.6 ± 0.099	-1.46 ± 0.16
ACUGAGCAAUAUUACGUCUA		-2.44 ± 0.25

Sequence	self-splicing fitness (ln) (30 °C)	self-splicing fitness (ln) (37 °C)
GGGCAGCAAUAUUACGUAGC	-1.79 ± 0.22	-0.913 ± 0.28
UAUGAGCAAUAUUACGCAGA	-3.3 ± 0.29	-2.6 ± 0.23
AGUUAGCAAUAUUACGUGGA	-1.87 ± 0.13	-1.58 ± 0.12
CGAAAGCAAUAUUACGCGUA	-2.68 ± 0.19	-1.95 ± 0.18
CUCAAGCAAUAUUACGAGAG	-3.27 ± 0.22	-1.81 ± 0.23
UUCGAGCAAUAUUACGGUGA	-1.33 ± 0.1	-0.708 ± 0.11
CGCGAGCAAUAUUACGCAUA	-1.87 ± 0.32	-2.14 ± 0.43
UUGUAGCAAUAUUACGCACG	-1.14 ± 0.11	-0.742 ± 0.13
UCACAGCAAUAUUACGCUGG	-3.9 ± 0.26	-2.94 ± 0.22
AUCCAGCAAUAUUACGAUGG	-3.82 ± 0.27	-2.85 ± 0.25
UAUUAGCAAUAUUACGUAGG	-1.57 ± 0.14	-1.33 ± 0.23
GGCGAGCAAUAUUACGCAUG	-1.32 ± 0.22	-0.82 ± 0.23
CGCGAGCAAUAUUACGCAUC	-3.36 ± 0.38	-0.312 ± 0.28
GCUUAGCAAUAUUACGGGAC	-1.78 ± 0.18	-1.19 ± 0.2
GAAAAGCAAUAUUACGGACA	-0.576 ± 0.056	-0.269 ± 0.064
UCCUAGCAAUAUUACGGUAU	-3.23 ± 0.16	-1.76 ± 0.18
UUUGAGCAAUAUUACGUCCU	-3.03 ± 0.27	-1.77 ± 0.2
GGUCAGCAAUAUUACGUUAC	-1.25 ± 0.061	-0.483 ± 0.08
GCCUAGCAAUAUUACGAUCA	-2.27 ± 0.27	-2.22 ± 0.18
CUAGAGCAAUAUUACGCGUG	-0.446 ± 0.1	-0.476 ± 0.12
UGUUAGCAAUAUUACGCCCA	0.342 ± 0.28	-0.34 ± 0.41
GCAGAGCAAUAUUACGUCGG	-2.57 ± 0.34	-1.69 ± 0.46
